The results in this text go back to patent publication US20110129478A1.

Assay [1] addresses human CD179b protein on the cell membrane surface of human cancer cell lines (human) (UniProt P15814). As to the kind of experiment: cell-based or functional assay.
Assay [2] shares this target. As to the kind of experiment: flow cytometry on human cancer cell lines expressing CD179b, against mouse IgG2a isotype control. (In general: Flow cytometry measures light scatter and fluorescence of single cells or particles in a stream.)

Sequence of UniProt P15814 (P15814 38-213): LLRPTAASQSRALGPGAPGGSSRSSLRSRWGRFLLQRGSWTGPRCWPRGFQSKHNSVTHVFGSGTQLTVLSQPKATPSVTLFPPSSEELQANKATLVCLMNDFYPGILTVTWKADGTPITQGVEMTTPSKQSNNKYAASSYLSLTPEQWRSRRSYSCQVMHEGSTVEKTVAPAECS

In assay [1], “mouse anti-human CD179b antibody (clone name: GA170; manufactured by Santa Cruz Biotechnology)” displayed an ADCC activity (chromium 51 release), BDCM cells of 32.3%; an ADCC activity (chromium 51 release), Namalwa cells of 32.6%; an ADCC activity (chromium 51 release), RPMI1788 cells of 28.3%; a CDC activity (chromium 51 release), BDCM cells of 21.2%. In assay [1], this substance displayed a CDC activity (chromium 51 release), Namalwa cells of 30.5% and a CDC activity (chromium 51 release), RPMI1788 cells of 30.5%. Also, in assay [2], the fluorescence intensity higher than that of the isotype control was over 10%.
